From patent US20240076386A1 (Pfizer, published 2024)

T1: human E-selectin extracellular domain with 10 His purification tail (human, UniProt P16581 22-556)
T1 construct: also called soluable human E-selectin extracellular domain; rhE-Selectin
T1 sequence: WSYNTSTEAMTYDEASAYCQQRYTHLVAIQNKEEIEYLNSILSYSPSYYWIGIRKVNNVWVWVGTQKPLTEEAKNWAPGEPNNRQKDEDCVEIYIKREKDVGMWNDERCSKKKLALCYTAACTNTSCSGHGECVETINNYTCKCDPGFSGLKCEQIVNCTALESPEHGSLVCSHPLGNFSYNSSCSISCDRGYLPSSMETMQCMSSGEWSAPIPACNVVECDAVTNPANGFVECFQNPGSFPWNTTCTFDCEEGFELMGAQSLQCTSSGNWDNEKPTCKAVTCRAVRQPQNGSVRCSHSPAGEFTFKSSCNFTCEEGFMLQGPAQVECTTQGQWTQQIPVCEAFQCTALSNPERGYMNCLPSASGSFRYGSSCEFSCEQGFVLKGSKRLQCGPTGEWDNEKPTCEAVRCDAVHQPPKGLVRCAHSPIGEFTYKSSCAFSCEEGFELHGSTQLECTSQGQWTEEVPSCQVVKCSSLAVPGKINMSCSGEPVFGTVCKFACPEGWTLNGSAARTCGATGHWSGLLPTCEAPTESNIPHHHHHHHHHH

T2: human E-selectin, cell-surface expressed (human, UniProt P16581 22-610)
T2 construct: also called CHO-human E-selectin cells; human CHO-E
T2 sequence: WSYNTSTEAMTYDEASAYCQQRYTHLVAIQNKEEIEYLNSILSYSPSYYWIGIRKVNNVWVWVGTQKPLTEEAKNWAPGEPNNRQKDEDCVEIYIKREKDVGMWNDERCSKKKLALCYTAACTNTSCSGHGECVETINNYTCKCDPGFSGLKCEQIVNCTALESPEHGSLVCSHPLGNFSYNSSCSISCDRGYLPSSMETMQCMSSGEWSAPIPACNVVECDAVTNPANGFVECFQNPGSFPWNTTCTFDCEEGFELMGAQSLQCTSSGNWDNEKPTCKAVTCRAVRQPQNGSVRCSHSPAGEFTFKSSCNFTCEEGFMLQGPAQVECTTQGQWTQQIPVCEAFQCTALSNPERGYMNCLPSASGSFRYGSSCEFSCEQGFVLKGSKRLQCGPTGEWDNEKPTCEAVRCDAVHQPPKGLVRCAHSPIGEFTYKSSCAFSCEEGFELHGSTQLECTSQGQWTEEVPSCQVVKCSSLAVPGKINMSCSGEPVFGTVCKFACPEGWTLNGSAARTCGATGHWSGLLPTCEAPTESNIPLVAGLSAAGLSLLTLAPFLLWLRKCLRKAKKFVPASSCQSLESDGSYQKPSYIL


Key:
[1] = target: T1, human E-selectin extracellular domain …; test: SPR, antibody captured, E-selectin analyte
Experimental: To characterize binding of antibodies to human, cynomolgus monkey, and mouse E-selectin, an antibody was diluted to 0.5 μg/mL in HBS-EP+ and captured by the anti-human IgG immobilized on flow cells 2, 3 and 4 for 30 seconds to 1 minute at a flow rate of 10 μL/minute to achieve a capture level of 70 to 300 RU. Flow cell 1 was used as a reference surface. […] HBS-EP+ buffer cycles collected for each captured antibody were used for double-referencing (Myszka D G. J. Mol. Recognition 1999; 12(5):279-84). At the end of each cycle, the entire anti-IgG surface was regenerated by a 30 second pulse of 3 M MgCl₂ and a 30 second pulse of ionic buffer (1.83 M MgCl₂, 0.92 M Urea, 1.83 M Guanidine HCl, pH 7.4) (Andersson K. Analy. Chem. 1999; 71(13): 2475-81). Kinetic assays were conducted at 25° C. at a collection rate of 10 Hertz (Hz) on a BIAcore™ T200 instrument (GE Healthcare). Rate constants and affinities were determined by fitting the data to a 1:1 binding model in BIAcore™ T200 Evaluation software version 3.0 (GE Healthcare).

[2] = target: T1, human E-selectin extracellular domain …; test: AlphaLISA competition vs sialyl Lewis A-PAA-biotin
Experimental: The neutralization ability of anti-E-selectin antibodies was measured in an AlphaLISA homogenous competition assay. […] This was incubated at room temperature for 15 minutes, followed by addition of 1.4 μL of human, mouse or cynomolgus monkey E-selectin added to a final concentration of 7 nM. This was again incubated at room temperature for 15 minutes. To this, 1.4 μL AlphaLISA beads was added (Ni-donor/SA-acceptor) for a final assay concentration of 10 μg/mL. This was incubated in the dark at room temperate for at least 10 hours. The plates were then read using the AlphaLISA protocol (Envision).

[3] = target: T2, human E-selectin, cell-surface expressed; test: competition ELISA on CHO cells vs sialyl Lewis ligand-PAA-biotin/SA-HRP
Experimental: In a static ligand cellular adhesion assay, horse radish peroxidase (HRP) conjugated E-selectin ligand (sialyl Lewis antigen) and E-selectin antibodies compete for binding to human or cynomolgus E-selectin expressed on Chinese hamster ovary (CHO) cells. The ability of anti-E-selectin antibodies to neutralize ligand binding was assessed in a static neutralization assay using a competition enzyme-linked immunosorbent assay (ELISA) to evaluate the neutralization of the sialyl Lewis antigen to Chinese hamster ovary cells (CHO) engineered to express human or cynomolgus monkey E-selectin.
CHO cells expressing E-selectin were seeded at 12,500 cells per well into a 96 well tissue culture plate and incubated at 37° C., 5% CO₂ for 48 hours to form a confluent monolayer. Plates were subsequently washed twice with 200 μL of calcium magnesium free PBS. Anti-E-selectin antibodies or an IgG1 isotype control (IgG control) were added to the assay in the presence of a small synthetic conjugate of biotinylated, sialyl Lewis A polyacrylamide (Carbosynth LLC, OS45446) or sialyl Lewis X polyacrylamide (Glycotech, 01-045) with streptavidin/horseradish peroxidase (100 μL total) and incubated at 37° C., 5% CO₂ for 2 hours. Plates were then washed twice with 200 μL of calcium and magnesium free PBS. Following the incubation, the cells were washed twice with 200 μL of wash buffer containing 2 mM of calcium chloride (50 mM TRIS [trisaminomethane], 150 mM sodium chloride; 0.05% polysorbate 20, pH 7.4; 2 mM calcium chloride). Signal was developed by adding 100 μL of 1-Step Ultra TMB substrate (Thermo Scientific, 34028) and incubating for 30 minutes at room temperature. Reactions were stopped using 2 M of sulfuric acid and absorbance was read at 450 nm (Spectramax M5e). Data were analyzed and graphed using GraphPad Prism software (Version 8.0.2).

| Binder | Kd [1] | koff [1] | kon [1] | t½ [1] | EC50 [2] | IC50 [3] |
| --- | --- | --- | --- | --- | --- | --- |
| anti-E-selectin antibody 0159 chimera (antibody, human IgG1, kappa, V domains shown, rat VH/VL on effector-null human IgG1 and human kappa) VH: EVQLQQSGAELGKPGTSVKLSCKVSGYNIRSTYMHWVSQRPGKGLEWIGRIDPANGNTIYAEKFKRKATLTADTSSNTAYMQLSQLKSDDRAIYFCAMEVRVSFEYWGQGVMVTVSS VL: DIQMTQSPSFLSASVGDRVTINCKASQNINKYLDWYQQKLGEGPKLLIYYTNNLHTGIPSRFSGSGSGTDFTLTISSLQPEDVATYFCLQHDSGYTFGAGTKLELKR | 324 nM | 0.0371 s⁻¹ | 115000 M⁻¹ s⁻¹ | 18.7 s | < 1 nM |  |
| optimized anti-E-selectin antibody 1282 (antibody, human IgG1, kappa, V domains shown, effector-null human IgG1, kappa) VH: EVQLVESGGGLVQPGGSLRLSCAASGYAIRSAYMHWVRQAPGKGLEWVARIDPANGNTIYVDSVEGRFTISADNAKNSAYLQMNSLRAEDTAVYYCAMDLYSTSEYWGQGTLVTVSS VL: DIQMTQSPSSLSASVGDRVTITCKTSQNIERYLNWYQQKPGKAPKLLIYAASSLQSGVPSRFSGSGSGTDFTLTISSLQPEDFATYFCLQDNAWPLTFGQGTKVEIKR |  |  |  |  |  | 1.38 nM |
| optimized anti-E-selectin antibody 1448 (antibody, human IgG1, kappa, V domains shown, effector-null human IgG1, kappa) VH: EVQLVESGGGLVQPGGSLRLSCAASGYAIRSAYMHWVRQAPGKGLEWVARIDPANGNTIYVDSVKERFTISADNAKNSAYLQMNSLRAEDTAVYYCAMDLYSTSEYWGQGTLVTVSS VL: DIQMTQSPSSLSASVGDRVTITCKTSQNIERYLNWYQQKPGKAPKLLIYAASSLQSGVPSRFSGSGSGTDFTLTISSLQPEDFATYFCLQDNAWPLTFGQGTKVEIKR |  |  |  |  |  | 2.78 nM |
| optimized anti-E-selectin antibody 1444 (antibody, human IgG1, kappa, V domains shown, effector-null human IgG1, kappa) VH: EVQLVESGGGLVQPGGSLRLSCAASGYAIRSAYMHWVRQAPGKGLEWVARIDPANGNTIYVDSVTGRFTISADNAKNSAYLQMNSLRAEDTAVYYCAMDLYSTSEYWGQGTLVTVSS VL: DIQMTQSPSSLSASVGDRVTITCKTSQNIERYLNWYQQKPGKAPKLLIYAASSLQSGVPSRFSGSGSGTDFTLTISSLQPEDFATYFCLQDNAWPLTFGQGTKVEIKR |  |  |  |  |  | 2.89 nM |
| optimized anti-E-selectin antibody 1284 (antibody, human IgG1, kappa, V domains shown, effector-null human IgG1, kappa) VH: EVQLVESGGGLVQPGGSLRLSCAASGYAIRSAYMHWVRQAPGKGLEWVARIDPANGNTIYVESVEGRFTISADNAKNSAYLQMNSLRAEDTAVYYCAMDLYSTSEYWGQGTLVTVSS VL: DIQMTQSPSSLSASVGDRVTITCKTSQNIERYLNWYQQKPGKAPKLLIYAASSLQSGVPSRFSGSGSGTDFTLTISSLQPEDFATYFCLQDNAWPLTFGQGTKVEIKR |  |  |  |  |  | 2.77 nM |
| anti-E-selectin antibody 0158 chimera (antibody, human IgG1, kappa, V domains shown, rat VH/VL on effector-null human IgG1 and human kappa) VH: QVQLKESGPGLVQPSETLSLTCTVSGFSISTYNVHWLRQPPGKGLEWMGMMWSGGSPDYNSALKSRLSISRDTSKNQVFLKMNSLQSEDTTTYYCARWGGGFDYWGQGVMVTVSS VL: DIVLTQSPTTLSVTPGETVSLSCRASHSIGTNLHWYQQKTNESPRLLIKFTSQSISGIPSRFSASGSGTDFTLNINNVEFDDVSSYFCQQTQSWPLTFGSGTKLEIKR | 21.6 nM | 0.00175 s⁻¹ | 81000 M⁻¹ s⁻¹ | 397 s | < 1 nM |  |
| anti-E-selectin antibody 0180 chimera (antibody, human IgG1, kappa, V domains shown, rat VH/VL on effector-null human IgG1 and human kappa) VH: EVQLQQSGAELGKPGTSVKLSCKVSGYKIRSSYMHWVNQRPGKGLEWIGRIDPANGNTIYGDKFKSKATLTSDTSSNTAYIQLSQLKSDDTAIYFCAIDIGTTFDYWGQGVMVTVSS VL: DIQMTQSPSFLSASVGDRVTINCKASQHINRYLNWYQQKLGEAPKLLIYDANNLQTGIPSRFSGSGSGTDFTLTISSLQPEDVATYFCLQHNSWPNTFGAGTKLELKR | 2940 nM | 0.666 s⁻¹ | 262000 M⁻¹ s⁻¹ | 1.05 s | < 1 nM |  |
| anti-E-selectin antibody 0164 chimera (antibody, human IgG1, kappa, V domains shown, rat VH/VL on effector-null human IgG1 and human kappa) VH: EVQLQQSGAEFGKPGTSVKLSCKVSGYNIRSSYMHWVNQRPGKGLEWIGRIDPANGNTIYAEKFKIKAILTADSSSNTAYMQLSQLKSDDTAIYFCAMDLYSTSEYWGQGVMVTVSS VL: DIQMTQSPSFLSASVGDRVTINCKTSQNINRYLNWYQQKLGEAPKLLIYNANSLQTGIPSRFSASGSGTDFTLTINSLQPEDVATYFCLQDNSWPLTFGSGTKLEIKR | 54.4 nM | 0.0113 s⁻¹ | 207000 M⁻¹ s⁻¹ | 61.6 s | < 1 nM | 2.69 nM |

Second part, the binder after the results:

| Kd [1] | koff [1] | kon [1] | t½ [1] | EC50 [2] | IC50 [3] | Binder |
| --- | --- | --- | --- | --- | --- | --- |
| 628 nM | 0.0549 s⁻¹ | 87400 M⁻¹ s⁻¹ | 12.6 s | < 1 nM |  | anti-E-selectin antibody 0170 chimera (antibody, human IgG1, kappa, V domains shown, rat VH/VL on effector-null human IgG1 and human kappa) VH: EVQLQQSGAELGKPGTSVKLSCKVSGYSIRSTYMHWVNQRPGKGLEWVGRIDPANGNTIYAERFKNKATLTADTSSNTAYMQLSQLKSDDTAIYFCAVEILGIFDYWGQGVMVTVSS VL: DIQMTQSPSFLSASVGDRVTINCKASQNIDKYLDWYQQKLGEAPKLLMYNTNSLHTGIPSRFSGSGSGTDFTLTISSLQPEDVATYFCLQHNSGYTFGAGTKLELKR |
| 68 nM | 0.00421 s⁻¹ | 64200 M⁻¹ s⁻¹ | 174 s | < 1 nM |  | anti-E-selectin antibody 0039 chimera (antibody, human IgG1, kappa, V domains shown, rat VH/VL on effector-null human IgG1 and human kappa) VH: QVQLKETGPGLVQPTQTLSITCTVSGFSLTGYYMQWVRQTPGKGLEWMGFIRSSGSTEYNSEFKSRLSISRDTSKNQVFLKMNSLKTEDTGVYYCARCPYKYSSFVYVGVMDAWGQGAPVTVSS VL: EIVMTQSPTSMSTSIGERVTLNCKASQTVGINVDWYQQTPGQPPKLLIYGASNRHTGVPDRFTGSGFGRDFTLTISNVEAEDLAVYCCLQYGSIPHTFGPGTKLELKR |
|  |  |  |  |  | 2.56 nM | humanized anti-E-selectin antibody 0841 (antibody, human IgG1, kappa, V domains shown, effector-null human IgG1, kappa) VH: EVQLVESGGGLVQPGGSLRLSCAASGYNIRSSYMHWVRQAPGKGLEWVARIDPANGNTIYAEKFKIRFTISADNAKNSAYLQMNSLRAEDTAVYYCAMDLYSTSEYWGQGTLVTVSS VL: DIQMTQSPSSLSASVGDRVTITCKTSQNINRYLNWYQQKPGKAPKLLIYNANSLQTGVPSRFSGSGSGTDFTLTISSLQPEDFATYFCLQDNSWPLTFGQGTKVEIKR |
